Target: the molecule itself
Test: thioflavin T aggregation kinetics + transmission electron microscopy of fibrils; self-association into amyloid fibrils; 40 uM FL-αSyn or αSyn-108, or 160 uM NACore; 50 mM Hepes (pH 7.4), 100 mM NaCl, 100 uM EDTA, 20 uM ThT, 37°C, continuous linear shaking; without coacervates (reference), with supernatant or with coacervate droplets

B1: NACore peptide (αSyn-68-78) (peptide)
peptide: GAVVTGVTAVA
notes: alpha-synuclein residues 68-78, from the non-amyloid-β component; source: synthetic peptide; bought: CASLO ApS (Denmark)
B1: binds.

Reference: article PMC10942789, “Biomolecular condensates can both accelerate and suppress aggregation of α-synuclein” (Science Advances, 2022)
